T1: human GP130 extracellular domain expressed with a C-terminal mouse IgG2a Fc tag (hGP130-mFc) (human)
T1 construct: also called dimeric human GP130
T1 chain: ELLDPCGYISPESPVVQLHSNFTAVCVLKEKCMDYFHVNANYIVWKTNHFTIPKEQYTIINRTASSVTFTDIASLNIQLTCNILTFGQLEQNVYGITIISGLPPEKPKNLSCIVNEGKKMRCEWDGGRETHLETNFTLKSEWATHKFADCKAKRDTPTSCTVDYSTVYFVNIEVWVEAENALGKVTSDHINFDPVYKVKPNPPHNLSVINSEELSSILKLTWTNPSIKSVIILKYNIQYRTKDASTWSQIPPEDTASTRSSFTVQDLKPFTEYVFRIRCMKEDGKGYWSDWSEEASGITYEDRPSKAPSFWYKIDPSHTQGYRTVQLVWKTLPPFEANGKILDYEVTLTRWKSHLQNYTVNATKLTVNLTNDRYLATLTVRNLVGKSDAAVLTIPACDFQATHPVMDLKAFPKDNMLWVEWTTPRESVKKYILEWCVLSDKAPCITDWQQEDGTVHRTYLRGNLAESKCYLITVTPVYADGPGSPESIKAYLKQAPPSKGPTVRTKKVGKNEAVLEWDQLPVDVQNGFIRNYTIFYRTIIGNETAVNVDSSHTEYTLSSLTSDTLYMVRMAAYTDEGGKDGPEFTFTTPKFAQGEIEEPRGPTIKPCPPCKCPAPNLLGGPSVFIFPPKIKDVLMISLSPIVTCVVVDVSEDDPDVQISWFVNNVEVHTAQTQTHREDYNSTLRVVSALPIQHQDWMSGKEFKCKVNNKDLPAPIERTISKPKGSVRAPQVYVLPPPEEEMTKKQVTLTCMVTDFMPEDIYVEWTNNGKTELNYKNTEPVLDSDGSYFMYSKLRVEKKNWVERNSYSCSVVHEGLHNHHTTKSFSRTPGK

B1: MAb16636 (antibody, V domains shown)
VH: QLQLQESGPGLVKPSETLSLICTVSGGSISSNNYYWGWIRQPPGKGLEWIGNLYGSGSTYYNPSLKSRVTISVDTSKNQFSLKLSFVTAADTAVYHCARWDTNGGAFDIWGQGTMVTVSS
VL: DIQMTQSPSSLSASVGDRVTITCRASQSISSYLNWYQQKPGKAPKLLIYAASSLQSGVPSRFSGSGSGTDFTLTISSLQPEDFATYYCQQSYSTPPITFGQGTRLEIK
notes: captured through anti-human Fc
B2: MAb16664 (antibody, V domains shown)
VH: QVQLVQSGTEVKKPGSSVKVSCKASGGTFSTYPINWVRQAPGQGLEWMGGIIPIFGTASYAQKFQGRVAITTDESTSTAYMELNSLRSEDTAVYYCARERPNWGSNDYWGQGTLVTVSS
VL: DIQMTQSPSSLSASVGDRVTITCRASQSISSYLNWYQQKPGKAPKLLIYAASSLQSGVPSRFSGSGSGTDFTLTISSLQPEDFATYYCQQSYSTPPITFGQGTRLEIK
notes: as for B1
B3: MAb16662 (antibody, V domains shown)
VH: EVQLVESGGGLVQPGGSLRLSCTASGFTFSNYAIFWVRQAPGKGLEYVSGISNNGVTKYYADSVRDRFTISRDNSRNTVSIQMDSLRTEDMAVYYCARENWGSDDGFDIWGQGTMVTVSS
VL: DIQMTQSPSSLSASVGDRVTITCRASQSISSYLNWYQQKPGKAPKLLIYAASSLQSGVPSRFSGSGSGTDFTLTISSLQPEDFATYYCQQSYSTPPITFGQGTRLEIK
notes: as for B1
B4: MAb16665 (antibody, V domains shown)
VH: QVQLVESGGGVVQPGRSLRLACAASGFTFRSYGMHWVRQAPGKGLEWVAVIWYDGSNKYYTDSVKGRFTISRDNSKNTLYLQMNSLRAEDTAMYYCAIDKWATVTTYLFDYWGQGTLVTVSS
VL: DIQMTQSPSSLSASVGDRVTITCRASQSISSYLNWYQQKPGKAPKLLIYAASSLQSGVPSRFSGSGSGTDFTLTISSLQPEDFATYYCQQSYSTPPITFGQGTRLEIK
notes: as for B1
B5: MAb16623 (antibody, V domains shown)
VH: EVQLVESGGGLVQPGGSLRLSCAASGLTFSSYEMNWVRQAPGKGLEWVSHISSAGSTKYYADSVKGRFTISRDNAKNSLFLQMNSLRAEDTAIYYCAGYNYAYYYFGVDVWGQGTTVTVSS
VL: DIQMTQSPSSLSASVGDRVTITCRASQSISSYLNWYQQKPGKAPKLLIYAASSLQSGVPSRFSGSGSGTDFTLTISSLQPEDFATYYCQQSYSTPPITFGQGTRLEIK
notes: as for B1
B6: MAb16656 (antibody, V domains shown)
VH: EVQLVESGGGLVQPGRSLRLSCAASGFTLDDFAMHWVRQAPGKGLEWVSGISWNSGNIGYADSVKGRFTISRDNARNSLYLQMNSLRAEDTALYYCTSGYYLYYAMDVWGQGTTVTVSS
VL: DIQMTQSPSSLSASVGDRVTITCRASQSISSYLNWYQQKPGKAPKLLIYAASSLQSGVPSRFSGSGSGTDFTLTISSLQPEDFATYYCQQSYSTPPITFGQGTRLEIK
notes: as for B1
B7: MAb16659 (antibody, V domains shown)
VH: QVQLVQSGPEVKKPGSSVKVSCKASGGTIDRNEITWVRQAPGQGLEWMGVIIPILGEAHYERKFQGRLTITMDESTSTAYMELSNLRSEDTAVYYCARERAARGYLDYWGQGTLVTVSS
VL: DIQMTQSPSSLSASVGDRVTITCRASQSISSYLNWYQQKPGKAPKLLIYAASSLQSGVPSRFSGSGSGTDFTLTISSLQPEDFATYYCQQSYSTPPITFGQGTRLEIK
notes: as for B1
B8: MAb16669 (antibody, V domains shown)
VH: EVQLVESGGGLVQPGGSLRLSCAASGFTFSSYAMNWVRQAPGKGLEWVSAISGSGDSTYYTDSVKGRFTISRDNSKNTLYLQMNTLRAEDTAVYYCAKEEIVMLVGATPGWFDPWGQGTLVTVSS
VL: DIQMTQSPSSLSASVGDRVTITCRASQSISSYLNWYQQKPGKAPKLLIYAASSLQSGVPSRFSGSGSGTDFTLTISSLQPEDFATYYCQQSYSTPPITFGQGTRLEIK
notes: as for B1
B9: MAb16666 (antibody, V domains shown)
VH: EVQLVESGGGLVQSGGSLRLSCAASGFTFSRYEMNWVRQAPGKGLEWVAYISNTGTTRDYSDSVKGRFTISRDNAKNSLYLQMSSLRVEDTAVYYCVREKFSGTSDWFDPWGQGTLVTVSS
VL: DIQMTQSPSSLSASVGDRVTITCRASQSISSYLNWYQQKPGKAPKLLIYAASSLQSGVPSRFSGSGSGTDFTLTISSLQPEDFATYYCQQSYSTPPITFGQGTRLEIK
notes: as for B1
B10: MAb16637 (antibody, V domains shown)
VH: QVQLVQSGAEVKKPGASVKVSCKASGYTFTSLGISWVRQAPGQGLEWMGWISAYSGNRDYAQKFQGRVTMTTDTSTSTAYMELRSLRSDDTAVYYCARSLRFDYWGQGTLVTVSS
VL: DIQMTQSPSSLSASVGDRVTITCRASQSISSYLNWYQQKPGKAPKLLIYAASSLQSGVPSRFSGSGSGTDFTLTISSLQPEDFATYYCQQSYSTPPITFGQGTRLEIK
notes: as for B1

Biological target: T1, human GP130 extracellular domain …
Test: SPR Biacore, mAb captured via anti-hFc, 37 C
Experimental: (§1) Equilibrium dissociation constant (KD) for different GP130 reagents binding to purified anti-GP130 monoclonal antibodies were determined using a real-time surface plasmon resonance based Biacore 4000 biosensor. All binding studies were performed in 10 mM HEPES, 150 mM NaCl, 3 mM EDTA, and 0.05% v/v Surfactant Tween-20, pH 7.4 (HBS-ET) running buffer at 25° C. and 37° C. The Biacore sensor surface was first derivatized by amine coupling with a monoclonal mouse anti-human Fc antibody (GE, #BR-1008-39) to capture anti-GP130 monoclonal antibodies. […] Reagents tagged with “mmH” are monomeric, whereas reagents tagged with “mFc” are dimeric. Thus, for example, “hGP130-mmH” is also referred to as “monomeric human GP130,” and “hGP130-mFc” is also referred to as “dimeric human GP130.”
(§2) The association rate (k a) and dissociation rate (kd) were determined by fitting the real-time binding sensorgrams to a 1:1 binding model with mass transport limitation using Scrubber 2.0c curve-fitting software. Binding dissociation equilibrium constant (KD) and dissociative half-life (t ½) were calculated from the kinetic rates as: […]

| 100 nM Ag Bound (RU) | Kd | koff | kon | t½ | Binder |
| --- | --- | --- | --- | --- | --- |
| 136 RU | 1.2 nM | 0.000167 s⁻¹ | 139000 M⁻¹ s⁻¹ | 69 min | B1 |
| 37 RU | 0.0815 nM | 0.000109 s⁻¹ | 1.33e+06 M⁻¹ s⁻¹ | 106 min | B2 |
| 114 RU | 4.15 nM | 0.00265 s⁻¹ | 639000 M⁻¹ s⁻¹ | 4 min | B3 |
| 172 RU | 3.92 nM | 0.00256 s⁻¹ | 653000 M⁻¹ s⁻¹ | 5 min | B4 |
| 224 RU | 0.56 nM | 0.000325 s⁻¹ | 580000 M⁻¹ s⁻¹ | 36 min | B5 |
| 123 RU | 1.7 nM | 0.000297 s⁻¹ | 175000 M⁻¹ s⁻¹ | 39 min | B6 |
| 227 RU | 0.0249 nM | 4.76e-05 s⁻¹ | 1.91e+06 M⁻¹ s⁻¹ | 243 min | B7 |
| 59 RU | 5.85 nM | 0.00038 s⁻¹ | 65100 M⁻¹ s⁻¹ | 30 min | B8 |
| 285 RU | 0.298 nM | 0.00036 s⁻¹ | 1.21e+06 M⁻¹ s⁻¹ | 32 min | B9 |
| 246 RU | 0.65 nM | 0.000323 s⁻¹ | 496000 M⁻¹ s⁻¹ | 36 min | B10 |

biological target: T2, mouse GP130 extracellular domain expressed with a C-terminal myc-myc-hexahistidine tag (mGP130-mmH) (mouse, UniProt Q00560 23-617); test: SPR Biacore, mAb captured via anti-hFc, 37 C
T2 construct: Monomeric; the entry includes the myc-myc-His tag
Experimental: as §1, §2

| 100 nM Ag Bound (RU) | binding result | Binder |
| --- | --- | --- |
| 0 RU |  | B1 |
| 1 RU | no binding (tested: 100 nM) | B2 |
| 1 RU |  | B3 |
| -1 RU |  | B4 |
| 0 RU |  | B5 |
| 0 RU | no binding (tested: 100 nM) | B6 |
| 1 RU | no binding (tested: 100 nM) | B7 |
| -1 RU |  | B8 |
| 0 RU | no binding (tested: 100 nM) | B9 |
| -1 RU |  | B10 |

biological target: T3, rat GP130 extracellular domain expressed with a C-terminal myc-myc-hexahistidine tag (rGP130-mmH) (rat, UniProt P40190 23-618); test: SPR Biacore, mAb captured via anti-hFc, 37 C
T3 construct: Monomeric; the entry includes the myc-myc-His tag
Experimental: as §1, §2

| 100 nM Ag Bound (RU) | Binder |
| --- | --- |
| 0 RU | B1 |
| 0 RU | B2 |
| 1 RU | B3 |
| -1 RU | B4 |
| 0 RU | B5 |
| 0 RU | B6 |
| 1 RU | B7 |
| -2 RU | B8 |
| 1 RU | B9 |
| 0 RU | B10 |

Biological target: T1, human GP130 extracellular domain …
Test: SPR Biacore, mAb captured via anti-hFc, 25 C
Experimental: as §1, §2

| 100 nM Ag Bound (RU) | Kd | koff | kon | t½ | Binder |
| --- | --- | --- | --- | --- | --- |
| 91 RU | 1.92 nM | 0.000113 s⁻¹ | 58800 M⁻¹ s⁻¹ | 102 min | B1 |
| 26 RU | 0.116 nM | 0.000354 s⁻¹ | 3.05e+06 M⁻¹ s⁻¹ | 33 min | B2 |
| 90 RU | 0.772 nM | 0.000479 s⁻¹ | 620000 M⁻¹ s⁻¹ | 24 min | B3 |
| 158 RU | 2.72 nM | 0.00109 s⁻¹ | 399000 M⁻¹ s⁻¹ | 11 min | B4 |
| 184 RU | 0.468 nM | 0.000208 s⁻¹ | 444000 M⁻¹ s⁻¹ | 56 min | B5 |
| 98 RU | 1.68 nM | 0.000132 s⁻¹ | 78100 M⁻¹ s⁻¹ | 88 min | B6 |
| 186 RU | 0.0366 nM | 6.28e-05 s⁻¹ | 1.72e+06 M⁻¹ s⁻¹ | 184 min | B7 |
| 40 RU | 8.21 nM | 0.000241 s⁻¹ | 29300 M⁻¹ s⁻¹ | 48 min | B8 |
| 253 RU | 0.12 nM | 0.000137 s⁻¹ | 1.14e+06 M⁻¹ s⁻¹ | 85 min | B9 |
| 189 RU | 0.647 nM | 0.00015 s⁻¹ | 232000 M⁻¹ s⁻¹ | 77 min | B10 |

biological target: T2, mouse GP130 extracellular domain …; test: SPR Biacore, mAb captured via anti-hFc, 25 C
Experimental: as §1, §2

| 100 nM Ag Bound (RU) | binding result | Binder |
| --- | --- | --- |
| 0 RU | no binding (tested: 100 nM) | B1 |
| 0 RU |  | B2 |
| -1 RU |  | B3 |
| 0 RU |  | B4 |
| 0 RU | no binding (tested: 100 nM) | B5 |
| 0 RU |  | B6 |
| 1 RU |  | B7 |
| 0 RU |  | B8 |
| 1 RU |  | B9 |
| 1 RU |  | B10 |

biological target: T3, rat GP130 extracellular domain …; test: SPR Biacore, mAb captured via anti-hFc, 25 C
Experimental: as §1, §2

| 100 nM Ag Bound (RU) | binding result | Binder |
| --- | --- | --- |
| 1 RU | no binding (tested: 100 nM) | B1 |
| 0 RU | no binding (tested: 100 nM) | B2 |
| -1 RU |  | B3 |
| 0 RU |  | B4 |
| 0 RU | no binding (tested: 100 nM) | B5 |
| -1 RU |  | B6 |
| 2 RU | no binding (tested: 100 nM) | B7 |
| -2 RU |  | B8 |
| 1 RU | no binding (tested: 100 nM) | B9 |
| 0 RU | no binding (tested: 100 nM) | B10 |
